Results reported in US11479580B2, “Polypeptide expressed in the stratum corneum and use thereof” (CENTRE NATIONAL DE LA RECHERCHE SCIENTIFIQUE—CNRS, priority 2010, dated 2022).

T1: transglutaminase 2 (UniProt P08587)
T1 construct: transglutaminase purified from guinea pig liver; purchased Sigma T5398; host or cells: guinea pig liver
T1 sequence (P08587 1-690): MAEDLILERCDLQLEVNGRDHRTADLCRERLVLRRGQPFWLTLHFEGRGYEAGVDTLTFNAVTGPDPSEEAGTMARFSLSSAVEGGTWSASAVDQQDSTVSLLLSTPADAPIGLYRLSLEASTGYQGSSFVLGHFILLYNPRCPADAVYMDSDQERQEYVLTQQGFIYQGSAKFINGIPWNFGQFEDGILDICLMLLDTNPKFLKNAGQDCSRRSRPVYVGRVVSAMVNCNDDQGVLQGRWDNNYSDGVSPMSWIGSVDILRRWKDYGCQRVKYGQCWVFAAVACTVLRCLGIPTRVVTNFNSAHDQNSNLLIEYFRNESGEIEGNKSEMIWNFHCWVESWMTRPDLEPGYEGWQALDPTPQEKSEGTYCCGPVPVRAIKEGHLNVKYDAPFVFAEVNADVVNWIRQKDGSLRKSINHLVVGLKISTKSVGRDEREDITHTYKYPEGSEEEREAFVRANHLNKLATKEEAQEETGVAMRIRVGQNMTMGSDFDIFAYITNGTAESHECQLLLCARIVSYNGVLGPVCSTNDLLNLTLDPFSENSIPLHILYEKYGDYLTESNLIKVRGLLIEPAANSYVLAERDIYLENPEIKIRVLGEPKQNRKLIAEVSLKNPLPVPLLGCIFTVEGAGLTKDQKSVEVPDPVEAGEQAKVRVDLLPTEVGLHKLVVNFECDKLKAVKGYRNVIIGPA

T2: transglutaminase 3 (Homo sapiens, UniProt Q08188)
T2 construct: purchased R&D Systems
T2 sequence (Q08188 1-693): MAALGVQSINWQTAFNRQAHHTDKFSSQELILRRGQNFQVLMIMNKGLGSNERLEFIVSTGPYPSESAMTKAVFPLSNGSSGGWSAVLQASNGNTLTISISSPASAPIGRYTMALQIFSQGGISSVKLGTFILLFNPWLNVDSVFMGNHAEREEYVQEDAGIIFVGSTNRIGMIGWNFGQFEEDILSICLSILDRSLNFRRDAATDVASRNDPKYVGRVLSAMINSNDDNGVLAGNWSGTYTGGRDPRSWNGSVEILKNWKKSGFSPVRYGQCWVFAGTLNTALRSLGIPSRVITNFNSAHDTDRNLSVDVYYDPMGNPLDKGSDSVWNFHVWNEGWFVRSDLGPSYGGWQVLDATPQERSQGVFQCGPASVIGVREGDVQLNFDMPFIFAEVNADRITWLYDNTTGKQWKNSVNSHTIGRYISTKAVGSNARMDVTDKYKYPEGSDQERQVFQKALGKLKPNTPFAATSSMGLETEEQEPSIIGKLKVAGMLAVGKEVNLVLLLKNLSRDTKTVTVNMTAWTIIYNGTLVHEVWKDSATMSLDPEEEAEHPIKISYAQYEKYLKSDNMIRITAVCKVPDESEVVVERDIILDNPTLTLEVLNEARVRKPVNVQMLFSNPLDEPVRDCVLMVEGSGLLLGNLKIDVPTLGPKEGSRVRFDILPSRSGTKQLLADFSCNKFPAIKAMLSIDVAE

B1: LCE6A-His: recombinant LCE6A possessing a C-terminal histidine tag (protein, UniProt A0A183 1-80, looked up)
Late cornified envelope …: MSQQKQQSWKPPNVPKCSPPQRSNPCLAPYSTPCGAPHSEGCHSSSQRPEVQKPRRARQKLRCLSRGTTYHCKEEECEGD
modifications: His tag
B2: LCE6A: polypeptide of 80 amino acids of the Late Cornified Envelope family, expressed in the epidermis (protein, listed as Homo sapiens)
chain: B1 Late cornified envelope …

Key:
transglutaminase 2 = target: T1, transglutaminase 2; assay: In-vitro transglutaminase 2 binding assay (TGM2); type: biochemical, guinea pig
Procedure: A binding assay of LCE6A by transglutaminase 2 (transglutaminase purified from guinea pig liver, Sigma T5398) was performed in vitro.
(§1) In a first experiment, the applicant tested the capacity of TGM2 to form bridges between LCE-His and a molecule bearing an amine bond, monodansyl cadaverine (MDC). For this, TGM2 (10 ng/μL) was incubated in the presence of 0.35 μg of LCE6A-His in solution in a buffer 50 mM Tris, 100 mM DTT, pH 7.4, with addition of 10 mM CaCl2 and 500 μM MDC (Fluka). After incubation for 2 h or 18 h at 37° C., the reaction is stopped by adding EDTA to final 25 mM. The negative control corresponds to the same experiment performed in the absence of CaCl2 and in the presence of 100 mM of ETDA after incubation for 18 h. The reaction product is separated by SDS-PAGE 15%, then visualized by illumination with UV.
In a second experiment, the applicant also tested the capacity of TGM2 to form bridges of LCE6A with itself. For this, TGM2 (10 ng/μL) was incubated in the presence of 0.35 μg of LCE6A-His in a buffer 50 mM Tris, 100 mM DTT, pH 7.4, with addition of 10 mM CaCl2. After incubation for 2 h or 18 h at 37° C., the reaction is stopped by adding EDTA to final 25 mM. The negative control corresponds to the same experiment performed in the absence of CaCl2 and in the presence of 100 mM of ETDA after incubation for 18 h. The reaction product is separated by SDS-PAGE 15% and transferred onto a nitrocellulose membrane. The intermolecular bonds are visualized by Western Blot as described above with an anti-His antibody (mouse monoclonal IgG1 “Tetra-His antibody”, Qiagen).

transglutaminase 3 = target: T2, transglutaminase 3; assay: In-vitro transglutaminase 3 binding assay (TGM3); type: biochemical
Procedure: A binding assay of LCE6A by transglutaminase 3 (human recombinant transglutaminase 3, R&D Systems) was performed in vitro. These assays are carried out according to the same experimental protocol as that described in example 4 paragraph 2 with transglutaminase 2.
as §1, with “TGM3” for “TGM2”, “and” for “and a molecule bearing an amine bond,”
In a second experiment, the applicant tested the capacity of TGM3 to form bridges of LCE6A with itself. For this, TGM3 (10 ng/μL) was incubated in the presence of 0.35 μg of LCE6A-His in a buffer 50 mM Tris, 100 mM DTT, pH 7.4, with addition of 10 mM CaCl2. After incubation for 2 h or 18 h at 37° C., the reaction is stopped by adding EDTA to final 25 mM. The negative control corresponds to the same experiment performed in the absence of CaCl2 and in the presence of 100 mM of ETDA after incubation for 18 h. The reaction product is separated by SDS-PAGE 15% and transferred onto a nitrocellulose membrane. The intermolecular bonds are visualized by Western Blot as described above with an anti-His antibody (mouse monoclonal IgG1 “Tetra-His antibody”, Qiagen).

[1] = 100 mM EDTA, absence of calcium, 18 h
[2] = absence of calcium, 100 mM EDTA

| Molecule | capacity of TGM2 to form bridges between LCE-His and MDC, fluorescent bands, negative control (transglutaminase 2; [1]) | capacity of TGM2 to form bridges between LCE-His and monodansyl cadaverine (MDC), fluorescent bands after SDS-PAGE under UV (transglutaminase 2; TGM2 10 ng/μL, 10 mM CaCl2, 500 μM MDC, starting from 2 h of incubation at 37° C.) | capacity of TGM2 to form bridges of LCE6A with itself, Western Blot with anti-His antibody (transglutaminase 2; TGM2 10 ng/μL, 10 mM CaCl2, 2 h or 18 h at 37° C.) | capacity of TGM2 to form bridges of LCE6A with itself, Western Blot, negative control (transglutaminase 2; [2]) | capacity of TGM3 to form bridges between LCE-His and MDC, fluorescent bands, negative control (transglutaminase 3; [1]) | capacity of TGM3 to form bridges between LCE-His and monodansyl cadaverine (MDC), fluorescent bands after SDS-PAGE under UV (transglutaminase 3; TGM3 10 ng/μL, 10 mM CaCl2, 500 μM MDC, starting from 2 h of incubation at 37° C.) | capacity of TGM3 to form bridges of LCE6A with itself, Western Blot with anti-His antibody (transglutaminase 3; TGM3 10 ng/μL, 10 mM CaCl2, 2 h or 18 h at 37° C.) | capacity of TGM3 to form bridges of LCE6A with itself, Western Blot, negative control (transglutaminase 3; [2]) | substrate of transglutaminase 2 (conclusion) (transglutaminase 2) | substrate of transglutaminase 3 (conclusion) (transglutaminase 3) |
| --- | --- | --- | --- | --- | --- | --- | --- | --- | --- | --- |
| B1 | No fluorescent band, apart from that corresponding to the free MDC, is detected | several fluorescent bands were detected | several bands of higher molecular weight migrating to a size equivalent to dimers or multimers of LCE6A-His | Only the band corresponding to monomeric LCE6A-His is detected | No fluorescent band, apart from that corresponding to the free MDC, is detected | several fluorescent bands were detected | several bands of higher molecular weight migrating to a size equivalent to dimers or multimers of LCE6A-His | Only the band corresponding to monomeric LCE6A-His is detected |  |  |
| B2 |  |  |  |  |  |  |  |  | substrate of transglutaminase 2 | substrate of transglutaminase 3 |
